Test results taken from US20260008856A1, “METHODS OF TREATING DISEASE USING ANTI-IL1RAP ANTIBODIES AND ANTIBODY DRUG CONJUGATES” (Bluefin Biomedicine, Inc., priority 2022, published 2026).

What was measured:
IL-1β signaling = assay: IL-1 signaling reporter cell assay (HEK-Blue IL-1β cells), IL-1β; format: cell-based
Description: (§1) HEK-Blue IL-1β cells (Invivogen, CA) were harvested and plated in technical duplicates at a density of 50,000 cells per well in a 96-well plate. IL1RAP antibodies, or a corresponding human IgG1 control antibody was added to the wells in a concentration range of […]. After incubating cells with antibodies for 30 minutes, IL-1β was added to a final concentration of 0.5 ng/ml, and the plate was incubated overnight. To examine whether any of the antibodies were able to induce IL-1R activation in the absence of IL-1β, samples were incubated with 10 μg/mL antibody without addition of the ligand. The following day, substrate was added to the supernatants, and samples were analyzed for absorbance at 620 nm.

[1] = test system: IL-6 secretion in human whole blood cultures stimulated with HKCA; assay: IL-6 production in human whole blood cultures stimulated with heat-killed Candida albicans; format: cell-based; details: 24 hours, 1 μg/ml alone, combination 1 μg/ml BFB759 + 0.5 μg/ml adalimumab
Source text: Materials included Human peripheral blood drawn from 5 healthy donors. Materials also included Anti-human TNF alpha (Adalimumab Biosimilar), BioXCell cat #SIM0001, lot #8024221F1; Heat-killed Candida albicans (HKCA), InvivoGen cat #tlrl-hkca, lot #6292-44-02; RPMI 1640 with L-glutamine and HEPES, Corning cat #10-041-CM; and Human IL-6 DuoSet ELISA, R and D Systems cat #DY206-05. Blood was drawn into heparin tubes from healthy volunteers. Whole blood cultures comprised of whole blood diluted with plain RPMI 1640 medium were set up in sterile 5.0 ml polypropylene snap cap culture tubes. One of the following treatments were added for 1 hour prior to either being left unstimulated or receiving stimulation with 1.5×10^6 cells heat-killed Candida albicans: medium alone (cells alone), 1 μg/ml IgG1 isotype control antibody alone, 1 μg/ml BFB759 alone, 1 μg/ml adalimumab alone, or one of two combination treatments of 1 μg/ml IgG1 isotype control antibody+0.5 μg/ml adalimumab or 1 μg/ml BFB759+0.5 μg/ml adalimumab. The final volume of each culture was 1.0 ml. Cultures were incubated for 24 hours at 37° C./5% CO2. Supernatants harvested from each culture in duplicate were frozen at −80° C. until assayed in duplicate for IL-6 levels by ELISA.

[2] = test system: normal human dermal fibroblasts (NHDF); assay: IL-6 and IL-8 production in NHDF stimulated with cytokine combo incl. TNF-α; format: cell-based; details: cytokine combo IL-1α/β, IL-36α/β/γ, antibodies 0-20 ug/ml, BFB759 0.5 ug/ml in combination
Description: Human NHDF cells were plated on 96-well, flat-bottom plates at 4,000 cells/well. […] For combination therapy, 0.5 ug/ml BFB759 was mixed with adalimumab or isotype control antibody at increasing concentrations (0-20 ug/ml, 5-fold dilution) and incubated with cells in duplicate for 45 minutes, prior to the addition of cytokine combo. The plates were then incubated overnight at 37° C., 5% CO2. 24 hours after treatment, supernatants were transferred and assayed for IL-6 and IL-8, as per manufacture's protocol (R&D Systems; Human IL-6 DuoSet ELISA, Human IL-8/CXCL8 DuoSet ELISA). The raw assay data were analyzed using GraphPad Prism 9 software to perform a non-linear regression.

[3] = test system: TARC production in HDM stimulated human PBMCs; assay: TARC production in HDM stimulated human PBMCs; format: cell-based; details: antibodies 30 ug/ml, HDM 10 ug/ml
Source text: Materials included Human peripheral blood mononuclear cells (PBMCs) that were isolated from healthy donor blood and either frozen in liquid nitrogen and thawed prior to analysis or used fresh. Materials also included HDM (house dust mite extract) that was from Greer lab and purchased through Fisher Scientific (NC9756554, Lot #390844). Additionally, Human IL-4 (204-IL-010) was purchased from R&D Systems; Human IL-13 (200-13) was purchased from Peprotech; JAK inhibitors (JAKi) Abrocitinib (HY-107429) and Upadacitinib (HY-19569) were purchased from MedChemExpress; Dexamethasone (D4902) was purchased from Sigma-Aldrich; Dupilumab (HY-P9926) was purchased from MedChemExpress; Tralokinumab was produced by Bluefin Biomedicine according to the published protein sequence; and TARC ELISA kits (DuoSet Cat #DY364, Quantikine Cat #SDN00) were purchased from R&D Systems.
Blood was drawn in heparin tubes from healthy volunteers. PBMCs were isolated by centrifugation of the blood over Ficoll-Paque Plus density gradients using LeucoSep tubes.
0.2 million PBMCs in 100 ul medium (RPMI1640, 10% heat-inactivated FBS) were added to each well of 96 well cell culture plate. BFB759 at multiple concentrations in 50 ul medium was added to the wells. The cells were incubated in the incubator for 45 min. Then, 50 ul HDM solution (final concentration 10 ug/ml) was added to the wells. […]

IL-1α signaling = assay: IL-1 signaling reporter cell assay, IL-1α; format: cell-based; details: serial dilution of antibody
Description: as §1
In addition, serial dilution of IL1RAP antibodies was performed to determine EC50 against IL-1β and IL-1α (FIGS. 6B and 6C). Many of these antibodies, including 37E10_15B5 and 44E5_15C5 can block IL-1β and IL-1α signaling with subnanomolar EC50.

[4] = test system: TARC expression in PBMCs stimulated with HDM and IL-4; assay: TARC in PBMCs treated by HDM and hIL-4; format: cell-based, human
Description: 0.2 million PBMCs in 100 ul medium (RPMI1640, 10% heat-inactivated FBS) were added to each well of 96 well cell culture plate. BFB759 at multiple concentrations in 50 ul medium was added to the wells. The cells were incubated in the incubator for 45 min. Then, 50 ul HDM solution (final concentration 10 ug/ml) was added to the wells. After 7 days incubation, the supernatant was transferred to a new 96 well plate, and used in TARC ELISA right away, or frozen in −80 C freezer for ELISA later. For the combination studies of BFB759 with other drugs, the single agent or combination of drugs were added to the PBMCs, incubated for 45 min, then HDM solution, or HDM and IL-4 or IL-13 solution were added to the wells. The assay was incubated for 7 days, and the supernatant was harvested for TARC ELISA.
Dupilumab is approved for treatment of AD (Atopic Dermatitis). It inhibits IL-4/13 signaling by blocking their binding to IL-4Ra. […] (FIG. 15)
In the data shown in FIG. 15, HDM was used at 10 ug/ml, IL-4 was used at […], antibodies were at three different concentrations as shown in the graph. Data shown are mean±s.d.

B1: 37E10_15B5: human anti-IL1RAP antibody BFB759 (i.e., 37E10_15B5), VH SEQ ID NO: 64, VL SEQ ID NO: 68 (antibody, V domains shown)
VH: QVQLVESGGGVVQPGRSLRLSCAASGFTFRSHGMHWVRQAPGKGLEWVAVIWYDGSSEYYADSVKGRFTISRDNSKNTLYLQMNSLRAEDTAVYYCARENVYGSGWFFDYWGQGTLVTVSS
VL: EIVMTQSPATLSVSPGERASLSCRASQSVGSNLAWYQQRPGQAPRLLIFGASTRATGIPARFSGSRSGTEFTLTISSLQSEDFALYYCQQYNNWPPWTFGQGTKLEIK
inhibition of IL1R1 / IL-1 signaling (IL-1β signaling; HEK-Blue IL-1β cells, antibody 1-10 pg/ml, IL-1β 0.5 ng/ml): potent inhibition | EC50 against IL-1β (IL-1β signaling; serial dilution of antibody, reporter assay): subnanomolar | inhibition of IL-6 secretion [1]: inhibit IL-6 secretion | IL-6 production [2]: dose-dependent decrease | IL-8 production [2]: dose-dependent decrease | inhibition of HDM induced TARC level, FIG. 13 [3]: inhibits | EC50 against IL-1α (IL-1α signaling): subnanomolar | inhibition of TARC expression in the HDM and IL-4 model ([4]; 1 or 0.1 ug/ml of BFB759, alone or combined with dupilumab): minimal inhibition | inhibition of TARC expression in the HDM and IL-4 model ([4]; HDM 10 ug/ml, IL-4 750 ug/ml, three antibody concentrations): partially inhibits
